The target in the assay is Flt3 3T3 cells (mFlt3/fms 3T3 cells and/or Stk 3T3 cells). Put plainly: cell-based or functional assay.

As for “Pv-FRIL (FRIL family member from Phaseolus vulgaris, red kidney bean)”, the Specific Activity (u/mg) in the Flt3 3T3 assay, Superdex 75 step was determined as 244000 u/mg.
